Reference: patent publication US20250281630A1 (TORAY INDUSTRIES, published 2025)

T1: human CAPRIN-1 on the cell membrane surface of human cancer cells (human, UniProt Q14444 2-709)
T1 construct: whole, on cells
T1 sequence (looked up): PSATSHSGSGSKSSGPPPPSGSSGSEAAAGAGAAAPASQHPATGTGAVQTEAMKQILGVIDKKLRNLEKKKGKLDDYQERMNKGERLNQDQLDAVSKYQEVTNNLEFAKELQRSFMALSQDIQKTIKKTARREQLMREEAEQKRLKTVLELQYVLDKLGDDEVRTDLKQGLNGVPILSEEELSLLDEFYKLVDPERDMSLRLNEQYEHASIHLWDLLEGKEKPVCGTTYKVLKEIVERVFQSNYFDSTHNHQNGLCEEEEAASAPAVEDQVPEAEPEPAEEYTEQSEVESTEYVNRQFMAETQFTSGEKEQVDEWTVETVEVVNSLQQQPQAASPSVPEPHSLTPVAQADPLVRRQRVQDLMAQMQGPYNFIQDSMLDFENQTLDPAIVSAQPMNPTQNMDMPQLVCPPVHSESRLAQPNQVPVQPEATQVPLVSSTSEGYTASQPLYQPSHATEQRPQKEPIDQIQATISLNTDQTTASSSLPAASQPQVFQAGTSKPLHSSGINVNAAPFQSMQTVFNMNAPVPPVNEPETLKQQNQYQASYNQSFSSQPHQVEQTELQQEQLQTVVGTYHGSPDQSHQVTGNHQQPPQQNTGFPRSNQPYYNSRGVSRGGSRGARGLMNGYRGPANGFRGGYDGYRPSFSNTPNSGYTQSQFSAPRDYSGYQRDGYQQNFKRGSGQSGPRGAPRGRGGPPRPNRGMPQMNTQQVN

T2: mouse CAPRIN-1 on mouse cancer cells (mouse, UniProt Q60865 2-707)
T2 construct: whole, on cells
T2 sequence (looked up): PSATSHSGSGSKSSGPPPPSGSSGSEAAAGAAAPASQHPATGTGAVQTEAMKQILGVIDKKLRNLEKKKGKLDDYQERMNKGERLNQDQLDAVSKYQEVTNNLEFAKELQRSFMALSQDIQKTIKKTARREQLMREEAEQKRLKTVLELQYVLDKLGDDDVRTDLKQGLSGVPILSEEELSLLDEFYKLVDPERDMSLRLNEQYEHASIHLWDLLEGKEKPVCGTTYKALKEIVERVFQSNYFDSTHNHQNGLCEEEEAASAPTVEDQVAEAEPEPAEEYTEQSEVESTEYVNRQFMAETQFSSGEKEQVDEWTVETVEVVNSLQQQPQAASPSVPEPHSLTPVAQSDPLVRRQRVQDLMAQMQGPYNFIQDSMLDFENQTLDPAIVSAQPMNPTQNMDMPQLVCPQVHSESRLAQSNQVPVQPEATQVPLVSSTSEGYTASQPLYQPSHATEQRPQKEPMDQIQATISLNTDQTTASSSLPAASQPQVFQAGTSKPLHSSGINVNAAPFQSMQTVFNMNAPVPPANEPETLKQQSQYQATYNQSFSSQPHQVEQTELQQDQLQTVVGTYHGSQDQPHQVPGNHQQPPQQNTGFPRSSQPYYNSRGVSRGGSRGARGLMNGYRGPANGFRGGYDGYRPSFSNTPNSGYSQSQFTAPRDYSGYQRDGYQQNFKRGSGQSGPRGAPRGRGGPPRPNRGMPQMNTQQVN


What was measured:
[1] = target: T1, human CAPRIN-1 on the cell membrane …; assay: flow cytometry, BT474 cells
Description: The tube was left at 4° C. for 1 hour. After washing with PBS, Alexa 488-labeled anti-rabbit IgG (H+L) diluted 100-fold with PBS(-) containing 0.5% FBS (0.5% FBS-PBS(-)) was added thereto, and the tube was left at 4° C. for 1 hour. After washing with 0.5% FBS-PBS(-), the cells were reacted with BD Horizon Fixable Viability Stain (FVS) Reagents (FVS450, Becton, Dickinson and Company) to stain dead cells, and the fluorescence intensity was then measured using FACSFortessa™ (Becton, Dickinson and Company).

[2] = target: T2, mouse CAPRIN-1 on mouse cancer cells; assay: flow cytometry, Renca and 4T1 cells

Binder | binding result [1] | binding result [2]
Conjugate 19 (antibody, human IgG1, V domains shown, human IgG1 constant regions; also called conjugate with MMAE using humanized antibody #13) VH: GAELVRSGASVKMSCKASGYSFTDYNMYWVKQTPGQGLEWIGYIYPGNGGTNYNQKFKGKATLTADTSSSTAYMQISSLTSEDSAVYFCARDYDDGGYAMDYWGQGTTVTVSS VL: DIQMTQSPASLSASVGETVTITCRASGNIHNYLTWYQQKQGKSPQLLVYNAKTLADGVPSRFSGSGSGTQYSLKINRLQPEDFGSYYCQHFWNIPWTFGGGTKLNSR | binds | binds
Conjugate 42 (antibody, human IgG1, V domains shown, human IgG1 constant regions; also called conjugate with MMAE using humanized antibody #36) VH: EVQLVESGGGLVQPGGSLRLSCAASGFSLSSHSLGWVRQAPGKGLEWIGDIRSGGSAYYANWAKGRFTISRDNSKNTLYLQMNSLRAEDTAVYYCTRTNGPSDLTNRLDLWGQGTLVTVSS VL: QVLTQSPSSLSASVGDRVTINCQASQSLYNNENLAWFQQKPGKVPKRLIYGASTLASGVSSRFSGSGSGTEFTLTISSLQCEDFAIYYCLGEFSCGSADCFAFGGGTKVEIK | binds | binds
Conjugate 44 (antibody, human IgG1, V domains shown, human IgG1 constant regions; also called conjugate with MMAE using humanized antibody #38) VH: EVQLVESGGGLVQPGGSLRLSCAASGFSLSSHSLGWVRQAPGKGLEWIGDIRSGGSAYYANWAKGRFTISRDNSKNTLYLQMNSLRAEDTAVYYCTRTNGPSDLTNRLDLWGQGTLVTVSS VL: EQVLTQSPSSLSASVGDRVTINCQASQSLYNNENLAWFQQKPGKVPKRLIYGASTLASGVSSRFSGSGSGTEFTLTISNLQPEDFAIYYCLGEFSCGSADCFAFGGGTKVEIK | binds | binds
Conjugate 126 (antibody, V domains shown, human IgG1 constant regions; also called conjugate with MMAE using humanized antibody #40) VH: EVQLVESGGGLVQPGGSLRLSCAASGFSLSSHSLGWVRQAPGKGLEWIGDIRSGGSAYYANWAKGRFTISRDNSKNTLYLQMNSLRAEDTAVYYCTRTNGPSDLTNRLDLWGQGTLVTVSS VL: EIVLTQSPSSLSASVGDRVTINCQASQSLYNNENLAWFQQKPGKVPKRLIYGASTLASGVSSRFSGSGSGTEFTLTISNLQPEDFATYYCLGEFSCGSADCFAFGGGTKVEIK | binds | binds
Conjugate 127 (antibody, V domains shown, human IgG1 constant regions; also called conjugate with MMAE using humanized antibody #41) VH: EVQLVESGGGLVQPGGSLRLSCAASGFSLSSHSLGWVRQAPGKGLEWIGDIRSGGSAYYANWAKGRFTISRDNSKNTLYLQMNSLRAEDTAVYFCTRTNGPSDLTNRLDLWGQGTLVTVSS VL: EQVLTQSPSSLSASVGDRVTINCQASQSLYNNENLAWFQQKPGKVPKRLIYGASTLASGVSSRFSGSGSGTEFTLTISNLQPEDFAIYYCLGEFSCGSADCFAFGGGTKVEIK | binds | binds
Conjugate 88 (antibody, V domains shown, human IgG1 constant regions; also called conjugate with MMAE using humanized antibody #2) VH: EQSLVESGGGLVQPGGSLRLSCAASGFSLSSHSLGWVRQAPGKGLEWIGDIRSGGSAYYANWAKGRFTISRDNSKNTLYLQMNSLRAEDTAVYYCTRTNGPSDLTNRLDLWGQGTLVTVSS VL: QVLTQSPSSLSASVGDRVTINCQASQSLYNNENLAWFQQKPGKVPKRLIYGASTLASGVSSRFSGSGSGTEFTLTISSLQCEDFAIYYCLGEFSCGSADCFAFGGGTKVEIK | binds | binds
Conjugate 46 (antibody, human IgG1, V domains shown, human IgG1 constant regions; also called conjugate with MMAE using humanized antibody #40) VH: EVQLVESGGGLVQPGGSLRLSCAASGFSLSSHSLGWVRQAPGKGLEWIGDIRSGGSAYYANWAKGRFTISRDNSKNTLYLQMNSLRAEDTAVYYCTRTNGPSDLTNRLDLWGQGTLVTVSS VL: EIVLTQSPSSLSASVGDRVTINCQASQSLYNNENLAWFQQKPGKVPKRLIYGASTLASGVSSRFSGSGSGTEFTLTISNLQPEDFATYYCLGEFSCGSADCFAFGGGTKVEIK | binds | binds

Continued, values first:

binding result [1] | binding result [2] | Binder
binds | binds | Conjugate 47 (antibody, human IgG1, V domains shown, human IgG1 constant regions; also called conjugate with MMAE using humanized antibody #41) VH: EVQLVESGGGLVQPGGSLRLSCAASGFSLSSHSLGWVRQAPGKGLEWIGDIRSGGSAYYANWAKGRFTISRDNSKNTLYLQMNSLRAEDTAVYFCTRTNGPSDLTNRLDLWGQGTLVTVSS VL: EQVLTQSPSSLSASVGDRVTINCQASQSLYNNENLAWFQQKPGKVPKRLIYGASTLASGVSSRFSGSGSGTEFTLTISNLQPEDFAIYYCLGEFSCGSADCFAFGGGTKVEIK
binds | binds | Conjugate 125 (antibody, V domains shown, human IgG1 constant regions; also called conjugate with MMAE using humanized antibody #39) VH: EVQLVESGGGLVQPGGSLRLSCAASGFSLSSHSLGWVRQAPGKGLEWIGDIRSGGSAYYANWAKGRFTISRDNSKNTLYLQMNSLRAEDTAVYFCTRTNGPSDLTNRLDLWGQGTLVTVSS VL: EIVLTQSPSSLSASVGDRVTINCQASQSLYNNENLAWFQQKPGKVPKRLIYGASTLASGVSSRFSGSGSGTEFTLTISNLQPEDFATYYCLGEFSCGSADCFAFGGGTKVEIK
binds | binds | Conjugate 43 (antibody, human IgG1, V domains shown, human IgG1 constant regions; also called conjugate with MMAE using humanized antibody #37) VH: EVQLVESGGGLVQPGGSLRLSCAASGFSLSSHSLGWVRQAPGKGLEWIGDIRSGGSAYYANWAKGRFTISRDNSKNTLYLQMNSLRAEDTAVYFCTRTNGPSDLTNRLDLWGQGTLVTVSS VL: QVLTQSPSSLSASVGDRVTINCQASQSLYNNENLAWFQQKPGKVPKRLIYGASTLASGVSSRFSGSGSGTEFTLTISSLQCEDFAIYYCLGEFSCGSADCFAFGGGTKVEIK
binds | binds | Conjugate 45 (antibody, human IgG1, V domains shown, human IgG1 constant regions; also called conjugate with MMAE using humanized antibody #39) VH: EVQLVESGGGLVQPGGSLRLSCAASGFSLSSHSLGWVRQAPGKGLEWIGDIRSGGSAYYANWAKGRFTISRDNSKNTLYLQMNSLRAEDTAVYFCTRTNGPSDLTNRLDLWGQGTLVTVSS VL: EIVLTQSPSSLSASVGDRVTINCQASQSLYNNENLAWFQQKPGKVPKRLIYGASTLASGVSSRFSGSGSGTEFTLTISNLQPEDFATYYCLGEFSCGSADCFAFGGGTKVEIK
binds | binds | Conjugate 8 (antibody, human IgG1, V domains shown, human IgG1 constant regions; also called conjugate with MMAE using humanized antibody #2) VH: EQSLVESGGGLVQPGGSLRLSCAASGFSLSSHSLGWVRQAPGKGLEWIGDIRSGGSAYYANWAKGRFTISRDNSKNTLYLQMNSLRAEDTAVYYCTRTNGPSDLTNRLDLWGQGTLVTVSS VL: QVLTQSPSSLSASVGDRVTINCQASQSLYNNENLAWFQQKPGKVPKRLIYGASTLASGVSSRFSGSGSGTEFTLTISSLQCEDFAIYYCLGEFSCGSADCFAFGGGTKVEIK
binds | binds | Conjugate 123 (antibody, V domains shown, human IgG1 constant regions; also called conjugate with MMAE using humanized antibody #37) VH: EVQLVESGGGLVQPGGSLRLSCAASGFSLSSHSLGWVRQAPGKGLEWIGDIRSGGSAYYANWAKGRFTISRDNSKNTLYLQMNSLRAEDTAVYFCTRTNGPSDLTNRLDLWGQGTLVTVSS VL: QVLTQSPSSLSASVGDRVTINCQASQSLYNNENLAWFQQKPGKVPKRLIYGASTLASGVSSRFSGSGSGTEFTLTISSLQCEDFAIYYCLGEFSCGSADCFAFGGGTKVEIK
binds | binds | Conjugate 15 (antibody, human IgG1, V domains shown, human IgG1 constant regions; also called conjugate with MMAE using humanized antibody #9) VH: AVTLDESGGGLQTPGGALSLVCKASGFTFSGYDMLWVRQAPGKGLEWVAGIGSTGGGTDYGAAVKGRATISRDNGQSTVRLQLNNLRAEDTATYYCAKVAGGCNSGYCRDSPGSIDAWGHGTEVIVS VL: AVTQQPASVSANPGETVKITCSGGGSRNYYGWYQQKSPGSVPVTVIYYDDQRPSNIPSRFSGALSGSTSTLTITGVQADDEAVYFCGSADSNTYEGSFGAGTTLTVL
binds | binds | Conjugate 20 (antibody, human IgG1, V domains shown, human IgG1 constant regions; also called conjugate with MMAE using humanized antibody #14) VH: DAELVKPGASVKISCKASGYTFTDHSIHWVQQKPEQGLEWIGYISPGNGNIKYNEKFKGKATLTADKSSSTAYMQLNSLTSEDSAVYFCKRSLGRGGPYYFDYWGQGTTVTVSS VL: DIVLTQAAPSLPVTPGESVSISCRSSKSLLHSNGNTYLYWFLQRPGQSPQLLIYRMSNLASGVPDRFSGSGSGTAFTLRISRVEAEDVGVYYCMQHREYPVTFGSGPN
